Results on four molecules are retold here after PMC9391306.

Data set [1] has as its target PARP1 Zn1-Zn3 (linked);PARP1 WGR-CAT ΔVE (Homo sapiens?;Homo sapiens?, UniProt P09874;P09874 1-366;518-1014, del97-206|del687-688). The experiment in a line: X-ray crystallography.
A further data set deals with PARP1 Y569A (UniProt P09874 1-1014, Y569A). The experiment in a line: fluorescence polarization.
The target of data set [2] is T1, PARP1 WT (UniProt P09874 1-1014). The experiment in a line: fluorescence polarization. For orientation: In fluorescence polarisation assays a small probe gives low polarisation when free and higher when bound to something large.
Data set [3] addresses T2, PARP1 G558V (UniProt P09874 1-1014, G558V). The experiment in a line: fluorescence polarization.
Another data set concerns the target PARP1 Y569L (UniProt P09874 1-1014, Y569L). Kind of data set: fluorescence polarization.
The target in data set [4] is T3, PARP1 ΔV687-E688 (ΔVE) (UniProt P09874 1-1014, del687-688). The experiment in a line: fluorescence polarization.
The target in data set [5] is T4, PARP1 M686G/V687P (UniProt P09874 1-1014, M686G;V687P). Kind of data set: fluorescence polarization.
The target in data set [6] is T5, PARP1 ΔART (UniProt P09874 1-786). The experiment in a line: fluorescence polarization.
Data set [7] addresses T6, PARP1 L713F (UniProt P09874 1-1014, L713F). Kind of data set: fluorescence polarization.
Data set [8] addresses T7, PARP1 L698A/L701A (UniProt P09874 1-1014, L698A;L701A). Kind of data set: fluorescence polarization.
Data set [9] has as its target T8, PARP1 V687A/E688A (UniProt P09874 1-1014, V687A;E688A). Kind of data set: fluorescence polarization.
The target in data set [10] is T9, PARP1 G558L (UniProt P09874 1-1014, G558L). Kind of data set: fluorescence polarization.
Data set [11] has as its target T10, PARP1 Zn1-Zn3 (linked);PARP1 WGR-HD (Homo sapiens?;Homo sapiens?, UniProt P09874;P09874 1-366;527-786, del97-206|del663-676). Kind of data set: fluorescence polarization.
For the next data set, the target named is PARP1 WGR-CAT (UniProt P09874 518-1014). Kind of data set: fluorescence polarization.
The target of a further data set is PARP1 WGR-HD (UniProt P09874 527-786, del663-676). The experiment in a line: fluorescence polarization.
The target in data set [12] is T1, PARP1 WT. The experiment in a line: fluorescence polarization. The source holds these as a separate data set.
The target of data set [13] is T2, PARP1 G558V. Kind of data set: fluorescence polarization. This is another data set of the same source.
Data set [14] addresses T3, PARP1 ΔV687-E688 (ΔVE). Kind of data set: fluorescence polarization. The source holds these as a separate data set.
Data set [15] concerns the target T4, PARP1 M686G/V687P. The experiment in a line: fluorescence polarization. This is another data set of the same source.
Data set [16] addresses T5, PARP1 ΔART. The experiment in a line: fluorescence polarization. The source holds these as a separate data set.
Data set [17] deals with T6, PARP1 L713F. The experiment in a line: fluorescence polarization. This is another data set of the same source.
Data set [18] addresses T7, PARP1 L698A/L701A. Kind of data set: fluorescence polarization. This is another data set of the same source.
The target of data set [19] is T8, PARP1 V687A/E688A. Kind of data set: fluorescence polarization. This is another data set of the same source.
The next data set deals with PARP1 G558E (UniProt P09874 1-1014, G558E). Kind of data set: fluorescence polarization.
The target in data set [20] is T9, PARP1 G558L. The experiment in a line: fluorescence polarization. This is another data set of the same source.
Data set [21] has as its target T10, PARP1 Zn1-Zn3 (linked);PARP1 WGR-HD. Kind of data set: X-ray crystallography.
The target of data set [22] is PARP1 Zn1;PARP1 Zn3;PARP1 WGR-HD (Homo sapiens?;Homo sapiens?;Homo …, UniProt P09874;P09874;P09874 1-96;216-366;527-786, ||del663-676). The experiment in a line: X-ray crystallography.

Like-named read-outs stand apart in the source and are kept apart here.

B1: 5-bp duplex (dsDNA)
DNA 1: CGACG
DNA 2: CGTCG
Regarding B1, the binding result in data set [1] is “binds”.

B2: 18-bp DSB duplex (dsDNA)
DNA 1: GGGTTGCGGCCGCTTGGG
DNA 2: CCCAAGCGGCCGCAACCC
In general, Kd refers to the free concentration of one partner at which half of the binding sites on the other are occupied at equilibrium, for simple one-to-one binding. A low value points to higher affinity. For B2, the equilibrium dissociation constant (Kd) in the data set with PARP1 Y569A turned out to be 20.6 ± 1.4 nM; with PARP1 WT [2], 8.4 ± 1 nM; in the data set with PARP1 G558V [3], 10.2 ± 1.5 nM; with PARP1 Y569L, 40.8 ± 2.1 nM; with PARP1 ΔV687-E688 (ΔVE) [4], 8 ± 1.9 nM; with PARP1 M686G/V687P [5], 4.8 ± 1.4 nM. In addition, the Kd was determined as 15.4 ± 1.8 nM in the data set with PARP1 ΔART [6]; 6.2 ± 3.1 nM with PARP1 L713F [7]; 15.3 ± 7.8 nM with PARP1 L698A/L701A [8]; 10.3 ± 3.6 nM with PARP1 V687A/E688A [9]; 7.6 ± 1.2 nM with PARP1 G558L [10]; 7 ± 2.4 nM in data set [11]. The equilibrium dissociation constant (Kd) was found to be 59.7 ± 9.2 nM in the data set with PARP1 WT [12]; 66.7 ± 7.4 nM with PARP1 G558V [13]; 9.4 ± 1.3 nM with PARP1 ΔV687-E688 (ΔVE) [14]; 7.3 ± 2.3 nM in the data set with PARP1 M686G/V687P [15]; 12.1 ± 4.6 nM in the data set with PARP1 ΔART [16]; 21.3 ± 3.5 nM with PARP1 L713F [17]. Further, the equilibrium dissociation constant (Kd) in the data set with PARP1 L698A/L701A [18] is 64.4 ± 13.4 nM; with PARP1 V687A/E688A [19], 71.2 ± 10.7 nM; with PARP1 G558E it was 118 ± 23.2 nM; with PARP1 G558L [20], 57.2 ± 5.8 nM. The binding result with PARP1 WGR-CAT and in the data set with PARP1 WGR-HD was “no binding” throughout.

B3: 10-bp palindromic duplex (dsDNA)
DNA 1: GCCTGCAGGC
DNA 2: GCCTGCAGGC
In the case of B3, the binding result in [21] is listed as “binds”.

B4: 12-bp palindromic duplex (dsDNA)
DNA 1: ATGCGGCCGCAT
DNA 2: ATGCGGCCGCAT
With B4, the binding result in data set [22] was “binds”.
